Experiments:
HeLa Kyoto [1] = assay: solubility change mitosis vs G1/S (difference of NP-40 vs SDS log2 ratios) (log2 ratio difference); higher = more soluble in mitosis
HeLa Kyoto [2] = assay: thermal stability score vs G1/S (z-score of summed log2 fold changes over temperatures); higher = more thermally stable than in G1/S
HeLa Kyoto [3] = assay: solubility in G1/S (NP-40 vs SDS abundance) (log2 ratio); higher = more soluble; conditions: cell cycle stage: G1/S
HeLa Kyoto [4] = assay: melting temperature (median over replicates), in situ; higher = more thermally stable
[5] = cell cycle stage: early G1 (4.5 h after nocodazole release)
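Wherever melting temperature (median over replicates), in situ is given: HeLa Kyoto cells synchronized by double thymidine or nocodazole block, proteins quantified by TMT10plex mass spectrometry, three independent biological replicates.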
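Wherever solubility change mitosis vs G1/S (difference of NP-40 vs SDS log2 ratios) is given: synchronized HeLa Kyoto cells (double thymidine block for G1/S, nocodazole release for mitosis), protein amounts in NP-40 versus SDS lysates quantified by mass spectrometry, three biological replicates.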
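Wherever solubility in G1/S (NP-40 vs SDS abundance) is given: HeLa Kyoto cells arrested at G1/S by double thymidine block, proteins quantified by TMT10plex mass spectrometry in mild NP-40 versus SDS extracts, three biological replicates.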
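Wherever thermal stability score vs G1/S (z-score of summed log2 fold changes over temperatures) is given: synchronized HeLa Kyoto cells, proteins quantified by TMT10plex mass spectrometry, three biological replicates, mitosis taken 0.5 h after nocodazole release, G1/S directly after double thymidine block.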

| Sequence | solubility change mitosis (log2) (HeLa Kyoto [1]) | thermal stability score (HeLa Kyoto [2]; [5]) | thermal stability score (HeLa Kyoto [2]; cell cycle stage: mitosis) | solubility in G1/S (log2) (HeLa Kyoto [3]) | melting temperature (HeLa Kyoto [4]; cell cycle stage: G1/S) [°C] | melting temperature (HeLa Kyoto [4]; cell cycle stage: mitosis) [°C] |
| --- | --- | --- | --- | --- | --- | --- |
| MSRHEGVSCDACLKGNFRGRRYKCLICYDYDLCASCYESGATTTRHTTDHPMQCILTRVDFDLYYGGEAFSVEQPQSFTCPYCGKMGYTETSLQEHVTSEHAETSTEVICPICAALPGGDPNHVTDDFAAHLTLEHRAPRDLDESSGVRHVRRMFHPGRGLGGPRARRSNMHFTSSSTGGLSSSQSSYSPSNREAMDPIAELLSQLSGVRRSAGGQLNSSGPSASQLQQLQMQLQLERQHAQAARQQLETARNATRRTNTSSVTTTITQSTATTNIANTESSQQTLQNSQFLLTRLNDPKMSETERQSMESERADRSLFVQELLLSTLVREESSSSDEDDRGEMADFGAMGCVDIMPLDVALENLNLKESNKGNEPPPPPL [KCMF1] | 0.00437 | -1.31 | -1.41 | -0.415 | 51.7 |  |
| MDAKARNCLLQHREALEKDIKTSYIMDHMISDGFLTISEEEKVRNEPTQQQRAAMLIKMILKKDNDSYVSFYNALLHEGYKDLAALLHDGIPVVSSSSGKDSVSGITSYVRTVLCEGGVPQRPVVFVTRKKLVNAIQQKLSKLKGEPGWVTIHGMAGCGKSVLAAEAVRDHSLLEGCFPGGVHWVSVGKQDKSGLLMKLQNLCTRLDQDESFSQRLPLNIEEAKDRLRILMLRKHPRSLLILDDVWDSWVLKAFDSQCQILLTTRDKSVTDSVMGPKYVVPVESSLGKEKGLEILSLFVNMKKADLPEQAHSIIKECKGSPLVVSLIGALLRDFPNRWEYYLKQLQNKQFKRIRKSSSYDYEALDEAMSISVEMLREDIKDYYTDLSILQKDVKVPTKVLCILWDMETEEVEDILQEFVNKSLLFCDRNGKSFRYYLHDLQVDFLTEKNCSQLQDLHKKIITQFQRYHQPHTLSPDQEDCMYWYNFLAYHMASAKMHKELCALMFSLDWIKAKTELVGPAHLIHEFVEYRHILDEKDCAVSENFQEFLSLNGHLLGRQPFPNIVQLGLCEPETSEVYQQAKLQAKQEVDNGMLYLEWINKKNITNLSRLVVRPHTDAVYHACFSEDGQRIASCGADKTLQVFKAETGEKLLEIKAHEDEVLCCAFSTDDRFIATCSVDKKVKIWNSMTGELVHTYDEHSEQVNCCHFTNSSHHLLLATGSSDCFLKLWDLNQKECRNTMFGHTNSVNHCRFSPDDKLLASCSADGTLKLWDATSANERKSINVKQFFLNLEDPQEDMEVIVKCCSWSADGARIMVAAKNKIFLFDIHTSGLLGEIHTGHHSTIQYCDFSPQNHLAVVALSQYCVELWNTDSRSKVADCRGHLSWVHGVMFSPDGSSFLTSSDDQTIRLWETKKVCKNSAVMLKQEVDVVFQENEVMVLAVDHIRRLQLINGRTGQIDYLTEAQVSCCCLSPHLQYIAFGDENGAIEILELVNNRIFQSRFQHKKTVWHIQFTADEKTLISSSDDAEIQVWNWQLDKCIFLRGHQETVKDFRLLKNSRLLSWSFDGTVKVWNIITGNKEKDFVCHQGTVLSCDISHDATKFSSTSADKTAKIWSFDLLLPLHELRGHNGCVRCSAFSVDSTLLATGDDNGEIRIWNVSNGELLHLCAPLSEEGAATHGGWVTDLCFSPDGKMLISAGGYIKWWNVVTGESSQTFYTNGTNLKKIHVSPDFKTYVTVDNLGILYILQTLE [APAF1] | -0.0529 | -0.116 | 0.0498 | -0.414 | 51.2 | 49.7 |
| MGKKSRVKTQKSGTGATATVSPKEILNLTSELLQKCSSPAPGPGKEWEEYVQIRTLVEKIRKKQKGLSVTFDGKREDYFPDLMKWASENGASVEGFEMVNFKEEGFGLRATRDIKAEELFLWVPRKLLMTVESAKNSVLGPLYSQDRILQAMGNIALAFHLLCERASPNSFWQPYIQTLPSEYDTPLYFEEDEVRYLQSTQAIHDVFSQYKNTARQYAYFYKVIQTHPHANKLPLKDSFTYEDYRWAVSSVMTRQNQIPTEDGSRVTLALIPLWDMCNHTNGLITTGYNLEDDRCECVALQDFRAGEQIYIFYGTRSNAEFVIHSGFFFDNNSHDRVKIKLGVSKSDRLYAMKAEVLARAGIPTSSVFALHFTEPPISAQLLAFLRVFCMTEEELKEHLLGDSAIDRIFTLGNSEFPVSWDNEVKLWTFLEDRASLLLKTYKTTIEEDKSVLKNHDLSVRAKMAIKLRLGEKEILEKAVKSAAVNREYYRQQMEEKAPLPKYEESNLGLLESSVGDSRLPLVLRNLEEEAGVQDALNIREAISKAKATENGLVNGENSIPNGTRSENESLNQESKRAVEDAKGSSSDSTAGVKE [SETD3] | -0.0646 | 1.13 | 1.44 | -0.0122 | 52.8 | 53.5 |

Reference: the supplement of paper PMC5998384
